Patent US20230192897A1 (NUMAB THERAPEUTICS, published 2023)
Blank lines part the entries; values can stand above or below the binder they belong to.

Tests used:
[1] = target: T1, Fc tagged human PDL1 (human, UniProt Q9NZQ7 19-239); experiment: SPR
T1 construct: Bought (Sino Biological, cat. 10084-H02H); captured on the SPR chip; also called PDL1-Fc chimeric protein
Outline: (§1)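 Kinetics were fitted with a one-to-one Langmuir model to give apparent ka, kd and KD. Binders at 0.12-90 nM (three-fold series) flowed 3 min, with 10 min dissociation and 3 M MgCl₂ regeneration, on a Biacore T200.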

[2] = target: cynomolgus CD137-Fc chimeric protein (cynomolgus monkey, UniProt A9YYE7 24-186); experiment: SPR
Outline: as §1

[3] = target: T2, mouse CD137-Fc chimeric protein (mouse, UniProt P20334 24-187, limits assumed); experiment: SPR
T2 sequence (looked up): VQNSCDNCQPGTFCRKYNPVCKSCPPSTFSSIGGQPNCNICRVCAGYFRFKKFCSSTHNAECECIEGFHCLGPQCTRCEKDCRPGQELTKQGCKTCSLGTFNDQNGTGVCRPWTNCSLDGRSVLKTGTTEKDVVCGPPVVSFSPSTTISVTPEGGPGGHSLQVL
Outline: as §1

[4] = target: T3, Fc tagged human CD137 (human, UniProt Q07011 24-186); experiment: SPR
T3 construct: also called CD137-Fc chimeric protein
Outline: as §1

[5] = target: human PDL1 on cells (human, UniProt Q9NZQ7 19-290); experiment: cell-based or functional assay
[6] = target: T4, CD137 on Jurkat NFkB reporter cells (human, UniProt Q07011 24-255); experiment: cell-based or functional assay
[7] = target: T4, CD137 on Jurkat NFkB reporter cells; experiment: cell-based or functional assay; remark: listed apart in the source
[8] = target: T5, biotinylated human PDL1 (human, UniProt Q9NZQ7 19-238, limits assumed, biotinylated); experiment: competition ELISA B7.1/PDL1
T5 construct: also called biotinylated PDL1
Outline: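 IC₅₀ was derived by four-parameter logistic fitting of reference-subtracted A450/690 readings. The signal came from streptavidin-polyHRP40 (10 ng/ml) with a 6-minute TMB reaction detecting biotinylated PDL1 bound to the plate. Pre-mixed samples sat 1 h at RT before a 1.5 h plate incubation.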

[9] = target: T5, biotinylated human PDL1; experiment: competition ELISA PD-1/PDL1
[10] = target: T6, human serum albumin (human, UniProt P02768 25-609); experiment: SPR, SA coupled to chip, pH 5.5
T6 construct: Coupled directly to the CM5 chip; also called HSA; human SA
Procedure: (§2) Affinity of molecules to serum albumin (SA) of the different species was determined by SPR measurements using a Biacore T200 device (GE Healthcare). SA was directly coupled to a CM5 sensor chip (GE Healthcare) using amine coupling chemistry. […] The assay was run in a 1× PBS-Tween buffer at pH 5.5.

[11] = target: T7, mouse serum albumin (mouse, UniProt P07724 25-608); experiment: SPR, SA coupled to chip, pH 5.5
T7 construct: Coupled directly to the CM5 chip; also called MSA; mouse SA
Procedure: as §2

kon [1]: 2.2e+06 M⁻¹ s⁻¹
Kd [2]: 6.9 nM
koff [2]: 0.01 s⁻¹
kon [2]: 1.5e+06 M⁻¹ s⁻¹
binding result [3]: no binding
Kd [4]: 4.2 nM
IC50 (ng/ml), NF-AT potency assay [5]: 88.5 ng/mL
rel. IC50 (avelumab/test) [5]: 0.47 fold
EC50, NFkB reporter, CHO-PDL1 [6]: 0.0337 µg/mL
IC50 (ng/ml), NFkB reporter, CHO-PD-L1 [7]: 33.7 ng/mL
max. activation (%), NFkB reporter, CHO-PD-L1 [7]: 432%
rel. IC50 (urelumab/test), NFkB reporter, CHO-PD-L1 [7]: 2.35 fold
IC50 [8]: 0.0093 µg/mL
rel. IC50 (IC50 avelumab/IC50 test) [8]: 0.78 fold
IC50 [9]: 0.0095 µg/mL
rel. IC50 (IC50 avelumab/IC50 test) [9]: 0.15 fold
B1: PRO951 (bispecific antibody)
chain: DIQMTQSPSSLSASVGDRVTITCQASQSINDYLAWYQQKPGKAPKLLIYKASTLASGVPSRFSGSGSGTDFTLTISSLQPEDFATYYCQQGYIITDIDNVFGTGTKVTVLGGGGGSEVQLVESGGGLVQPGGSLRLSCAASGFSFNNDYDMCWVRQAPGKGLEWIGCIDTGDGSTYYASWAKGRFTISRDNSKNTVYLQMNSLRAEDTAVYYCAREAASSSGYGMGYFDLWGQGTLVTVSSGGGGSGGGGSGGGGSGGGGSIQMTQSPSSLSASVGDRVTITCQSSQSVYDNNWLAWYQQKPGKAPKLLIYRASNLASGVPSRFSGSGSGTDFTLTISSLQPEDFATYYCQGTYLSSNWYWAFGTGTKVTVLGGGGGSQVQLQESGPGLVKPSETLSLTCKVSGFSFSSGYDMCWIRQPPGKGLEWIGCVVAGSVDITYYASWAKGRVTISVDSSKNQFSLKLSSVTAADTAVYYCARKDAYSDAFNLWGQGTLVTVSS
notes: scDb anti-PDL1 x CD137; also called 38-27-C05 sc02 scDb-i/33-03-G02 sc01 scDb-o

Kd [1]: 0.0037 nM
koff [1]: 2.3e-05 s⁻¹
kon [1]: 6.2e+06 M⁻¹ s⁻¹
Kd [4]: 2.6 nM
koff [4]: 0.0005 s⁻¹
IC50 (ng/ml), NF-AT potency assay, +HSA [5]: 10.2 ng/mL
rel. IC50 (avelumab/test), +HSA [5]: 2.31 fold
IC50 (ng/ml), NFkB reporter, CHO-PD-L1, 24 h, +HSA [7]: 51 ng/mL
IC50 (ng/ml), NFkB reporter, HCC827 + IFNg, 24 h, +HSA [7]: 16.7 ng/mL
max. activation (%), NFkB reporter, CHO-PD-L1, 24 h, +HSA [7]: 152%
rel. IC50 (urelumab/test), NFkB reporter, CHO-PD-L1, 24 h, +HSA [7]: 0.97 fold
rel. IC50 (urelumab/test), NFkB reporter, HCC827 + IFNg, 24 h, +HSA [7]: 1.88 fold
IC50 [8]: 0.00781 µg/mL
rel. IC50 (IC50 avelumab/IC50 test) [8]: 1.58 fold
IC50 [9]: 0.00174 µg/mL
rel. IC50 (IC50 avelumab/IC50 test) [9]: 1.26 fold
Kd [10]: 2.9 nM
koff [10]: 0.00072 s⁻¹
kon [10]: 250000 M⁻¹ s⁻¹
kon [11]: 220000 M⁻¹ s⁻¹
B2: PRO1186 (other)
chain: DIQMTQSPSSLSASVGDRVTITCQASQSIGTYLAWYQQKPGKAPKLLIYRAFILASGVPSRFSGSGSGTDFTLTISSLQPEDFATYYCQSNFYSDSTTIGPNAFGTGTKVTVLGGGGGSQVQLQESGPGLVKPSETLSLTCKVSGFSFSNSYWICWIRQPPGKGLEWIGCTFVGSSDSTYYANWAKGRVTISVDSSKNQFSLKLSSVTAADTAVYYCARHPSDAVYGYANNLWGQGTLVTVSSGGGGSGGGGSGGGGSGGGGSDIQMTQSPSSLSASVGDRVTITCQASQSINNVLAWYQQKPGKAPKLLIYRASTLASGVPSRFSGSGSGTDFTLTISSLQPEDFATYYCQSSYGNYGDFGTGTKVTVLGGGGGSQVQLQESGPGLVKPSETLSLTCKVSGFSFNSDYWIYWIRQPPGKGLEWIGSIYGGSSGNTQYASWAQGRVTISVDSSKNQFSLKLSSVTAADTAVYYCARGYVDYGGATDLWGQGTLVTVSSGGGGSGGGGSVVMTQSPSSLSASVGDRVTITCQASQIISSRSAWYQQKPGQPPKLLIYQASKLASGVPSRFSGSGSGTDFTLTISSLQPEDFATYYCQCTYIDSNFGAFGGGTKLTVLGGGGGSGGGGSGGGGSGGGGSEVQLVESGGGLVQPGGSLRLSCAASGFSFSSSYWICWVRQAPGKGLEWVGCVFTGDGTTYYASWAKGRFTISRDNSKNTVYLQMNSLRAEDTATYFCARPVSVYYYGMDLWGQGTLVTVSS
notes: trispecific scDb-scFv; also called 38-02-A04 sc01 scDb-i/37-20-B03sc01 scDb-o/23-13-A01-sc03 scFv
